Consider 1 variant from IntAct's records for PubMed 22187461.

Sequences and labels used below:
B1: 26S proteasome non-ATPase regulatory subunit 11 (Drosophila melanogaster (Fruit fly)), Q7KLV9-1 (parent)
chain: MAGATLFERAQALSSVNREEQDSSLLNKLVRDQEGAENDEERIRIKEQGILQQGELYKQEGKAKELADLIKVTRPFLSSISKAKAAKLVRSLVDMFLDMDAGTGIEVQLCKDCIEWAKQEKRTFLRQSLEARLIALYFDTALYTEALALGAQLLRELKKLDDKNLLVEVQLLESKTYHALSNLPKARAALTSARTTANAIYCPPKVQGALDLQSGILHAADERDFKTAFSYFYEAFEGFDSVDSVKALTSLKYMLLCKIMLGQSDDVNQLVSGKLAITYSGRDIDAMKSVAEASHKRSLADFQAALKEYKKELAEDVIVQAHLGTLYDTMLEQNLCRIIEPYSRVQVAHVAESIQLPMPQVEKKLSQMILDKKFSGILDQGEGVLIVFEETPVDKTYERVLETIQSMGKVVDTLYQKAKKLS
partner: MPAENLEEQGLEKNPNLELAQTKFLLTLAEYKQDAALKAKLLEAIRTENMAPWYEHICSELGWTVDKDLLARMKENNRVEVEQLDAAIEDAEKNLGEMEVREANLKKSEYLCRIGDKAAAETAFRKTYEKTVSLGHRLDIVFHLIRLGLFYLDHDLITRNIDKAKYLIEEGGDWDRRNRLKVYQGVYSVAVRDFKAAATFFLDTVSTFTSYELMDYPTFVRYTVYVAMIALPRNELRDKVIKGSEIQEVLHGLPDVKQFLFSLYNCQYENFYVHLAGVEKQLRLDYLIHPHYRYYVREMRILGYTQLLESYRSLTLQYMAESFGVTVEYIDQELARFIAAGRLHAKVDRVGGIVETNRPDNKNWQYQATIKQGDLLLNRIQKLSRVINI

Variants of B1 are the subject of the test. The following applies: with psmd6_drome Rpn7, Q9V3G7.
As for MAGATLFERAQALSSVNREEQDSSLLNKLVRDQEGAENDEERIRIKEQGILQQGELYKQEGKAKELADLIKVTRPFLSSISKAKAAKLVRSLVDMFLDMDAGTGIEVQLCKDCIEWAKQEKRTFLRQSLEARLIALYFDTALYTEALALGAQLLRELKKLDDKNLLVEVQLLESKTYHALSNLPKARAALTSARTTANAIYCPPKVQGALDLQSGILHAADERDFKTAFSYFYEAFEGFDSVDSVKALTSLKYMLLCKIMLGQSDDVNQLVSGKLAITYSGRDIDAMKSVAEASHKRSLADFQAALKEYKKELAEDVIVQAHLGTLYDTMLEQNLCRIIEPYSRVQVAHVAESIQLPMPQVEKKLKQMAADKKFSGILDQGEGVLIVFEETPVDKTYERVLETIQSMGKVVDTLYQKAKKLS [S366K;I369A;L370A], the “effect of a mutation on the interaction” value is recorded as “disrupting interaction strength”.
